Changes are numbered by the printed parent chain.
Columns and labels:
IL-1β-his [1] = target: T1, IL-1β-his (human, UniProt P01584 117-269); experiment: ELISA, IL-1β-his coated
T1 construct: also called IL1b-His; IL-1β-WT-His

IL-1β-his [2] = target: T1, IL-1β-his; experiment: ELISA, IL-1β-his coated, antibody titrated (Example 9, method of Example 6.1); Mean, SD 0.002; lower right table
IL-1β-his [3] = target: T1, IL-1β-his; experiment: ELISA, IL-1β-his coated, antibody titrated (Example 9, method of Example 6.1); Mean, SD 0.000; upper left table
IL-1β-his [4] = target: T1, IL-1β-his; experiment: ELISA, IL-1β-his coated, antibody titrated (Example 9, method of Example 6.1); Mean, SD 0.000; upper right table
IL-1β-his [5] = target: T1, IL-1β-his; experiment: BLI (Fortebio Octet Qke), antibody immobilised on AR2G sensor, IL1β-his 1.56-100 nM, 1:1 fit
IL-1β-his [6] = target: T1, IL-1β-his; experiment: ELISA on IL-1β-his (Example 11, method of Example 6.1); sample kept at 40 °C for 28 d; Mean, SD 0.023
IL-1β-his [7] = target: T1, IL-1β-his; experiment: ELISA, IL-1β-his coated, antibody titrated (Example 9, method of Example 6.1); Mean, SD 0.019; lower left table
IL-1β-his [8] = target: T1, IL-1β-his; experiment: ELISA on IL-1β-his (Example 11, method of Example 6.1); sample kept at 40 °C for 7 d; Mean, SD 0.001
IL-1β-hFc [9] = target: T2, IL-1β-hFc (human); experiment: competition ELISA by the method of Example 6.2, competitor IL1RI
T2 construct: also called IL1b-TEV-hIgG1Fc

[10] = target: T3, IL1β (antigen used as analyte in Biacore) (UniProt P01584 117-269, limits assumed); experiment: SPR (Biacore), antibody captured on Protein A chip, antigen as analyte
T3 construct: also called the antigen

IL-1β-hFc [11] = target: T2, IL-1β-hFc; experiment: competition ELISA, IL-1β-hFc coated, competitor IL1RI(1-332)-his at 0.04 µg/ml, anti-His detection
IL-1β-hFc [12] = target: T2, IL-1β-hFc; experiment: competition ELISA, IL-1β-hFc coated, competitor IL1RI(1-332)-his, anti-His detection
IL-1β-hFc [13] = target: T2, IL-1β-hFc; experiment: competition ELISA: IL-1β-hFc coated, antibody titrated, IL1RI (1-332)-his as the blocked receptor (Example 12, method of Example 6.2)
IL-1β-his-bio = target: T4, IL-1β-his-bio (human, UniProt P01584 117-269, biotinylated, sites not stated); experiment: ELISA, IL-1β-his-bio captured on streptavidin plate
T4 construct: also called biotinylated IL1b-His

B1: humanized antibody 18H11 H1L1 (antibody, V domains shown)
VH: QVQLVQSGAEVVKPGASVKISCKASGYLFTGYYMHWVKQAPGKGLEWIGFISCYNGDTTYNQKFQGKATFTVDTSTNTAYMEFNSLTSEDTAVYYCSRSDYYGTSDYWGQGTTLTVSS
VL: EIVLTQSPATMSASPGERVTISCRASSSVSYMHWFQQKPGQAPRLWIYTTSTLATGVPARFSGSGSGTDYTLTISRMEPEDAATYYCQQRIIYPPTFGGGTKLEIKR
B1 showed an EC50 (IL-1β-his [1]) of 0.046 nM, an EC50 (IL-1β-his [2]) of 0.051 nM and an EC50 (IL-1β-his [3]) of 0.051 nM. The EC50 (IL-1β-his [4]) was 0.051 nM, the Kd (IL-1β-his [5]) was 0.142 nM and the EC50 (IL-1β-his [6]) was 0.133 nM. For the same binder, the EC50 (IL-1β-his [7]) was 0.074 nM and the EC50 (IL-1β-his [8]) was 0.076 nM.

B2: Positive control antibody PcAb (antibody, human IgG1, kappa, V domains shown)
VH: QVQLVESGGGVVQPGRSLRLSCAASGFTFSVYGMNWVRQAPGKGLEWVAIIWYDGDNQYYADSVKGRFTISRDNSKNTLYLQMNGLRAEDTAVYYCARDLRTGPFDYWGQGTLVTVSS
VL: EIVLTQSPDFQSVTPKEKVTITCRASQSIGSSLHWYQQKPDQSPKLLIKYASQSFSGVPSRFSGSGSGTDFTLTINSLEAEDAAAYYCHQSSSLPFTFGPGTKVDIKR
notes: also called KF021ZP4 PcAb; KF021ZP4 PCAb
Work on B2 yielded an EC50 (IL-1β-his [1]) of 0.169 nM, an IC50 (IL-1β-hFc [9]) of 0.03 nM and a Kd [10] of 0.0616 nM. It also gave a koff [10] of 0.000104 s⁻¹, a kon [10] of 1.69e+06 M⁻¹ s⁻¹ and an EC50 (IL-1β-hFc [11]) of 0.229 nM. The Kd (IL-1β-his [5]) was 0.179 nM, the koff (IL-1β-his [5]) was 0.000105 s⁻¹ and the kon (IL-1β-his [5]) was 589000 M⁻¹ s⁻¹. The EC50 (IL-1β-hFc [12]) was 0.516 nM, the “IC50 (read off the curve)” value (IL-1β-hFc [13]) was ~3 nM and the EC50 (IL-1β-his-bio) was 0.062 nM.

B3: murine antibody KF021ZP4 9D5 (antibody, V domains shown)
VH: DVQLVESGGGLVQPGGSRKLSCAASGFTFSTFGMHWVRQAPEKGLEWVAYISSGSYTTYYADTVRGRFTISRDNPKNTLFLQMTSLRSEDTAMYYCARDDYDVSNYVMDYWGQGTSVTVSS
VL: DIVLTQSPASLAVSLGQRATISCRASESVEYYGTSLMQWYQQKPGQPPKLLIYAASNVESGVPARFTGSGSGTVFSLNIHPVEEDDIAMYFCQQSRKVPSLTFGAGTKLELK
notes: Mouse monoclonal antibody from hybridoma supernatant
For B3, the EC50 (IL-1β-hFc [11]) was 0.37 nM and the EC50 (IL-1β-his-bio) was 0.036 nM.

B4: murine antibody KF021ZP4 19E4 (antibody, V domains shown)
VH: B3 VH with T58I, N105Y, V107A
VL: B3 VL with T67S, V74D
notes: as for B3
Work on B4 yielded an EC50 (IL-1β-hFc [11]) of 0.892 nM and an EC50 (IL-1β-his-bio) of 0.726 nM.

B5: murine antibody KF021ZP4 18H11 (antibody, V domains shown)
VH: EVQLQQSGPELVKTGASVKISCKASGYLFTGYYMHWVKQSHGKSLEWIGFISCYNGDTTYNQKFKDKATFTVDTSSNTAYMQFNSLTSEDSAVYYCSRSDYYGTSDYWGQGTTLTVSS
VL: QIVLTQSPAIMSASPGEKVTITCSASSSVSYMHWFQQKPGTSPKLWIYTTSTLASGVPARFSGSGSGTSYSLTISRMEAEDAATYYCQQRIIYPPTFGGGTKLEIK
notes: as for B3
Binder B5 has an EC50 (IL-1β-hFc [11]) of 0.389 nM and an EC50 (IL-1β-his-bio) of 0.174 nM.

— US20220064282A1 (ZEDA BIOPHARMACEUTICALS, published 2022)
